According to article PMC3517971:

Columns and labels:
[1] = molecular target: SpoIIE(590–827), PP2C phosphatase domain of SpoIIE from Bacillus subtilis (B. subtilis) (UniProt P37475); test: crystal structure; crystals from 14–15% polyethylene glycol 400, 0.1 M Tris–HCl (pH 8.5), 0.2 M sodium citrate, 0–50 mM MnCl2; space group P6_(1)22, two molecules in the asymmetric unit; 2.6 Å (PDB 3T91)
[2] = molecular target: SpoIIE(590–827), PP2C phosphatase domain of SpoIIE from Bacillus subtilis (B. subtilis) (UniProt P37475); test: crystal structure; crystals from 0.9–1.2 M sodium acetate, 0.1 M Hepes pH 7.5; protein pre-incubated with 1–2 mM MnCl2 for 30 min; space group P6_(1)22; 2.76 Å (PDB 3T9Q)

stoichiometry N [1]: 2
stoichiometry N [2]: 2
Substance: SpoIIE(590–827), PP2C phosphatase domain of SpoIIE from Bacillus subtilis (from UniProt P37475 590-827) (domain or fragment)
